# The supplement of paper PMC10567573
# B1: FCHO1 (parent)
# chain: DKLALCHLELTRKLQDLIKDVLRY
# Variants of: B1
# Experiment: protein stability index of a GFP-peptide fusion (GPS, HEK-293T) (PSI 1-6); higher = more stable
# Details: c terminus: a fixed tail appended
# 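Note: lentivirally expressed fusions sorted by FACS into six bins by GFP to DsRed ratio, PSI derived from sequencing read proportions per bin multiplied by bin number.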
row,Variant,protein stability index
1,DKSALCHLELTRKLQDLIKDVLRY [L3S],1.79
2,DKTALCHLELTRKLQDLIKDVLRY [L3T],1.81
3,DKVALCHLELTRKLQDLIKDVLRY [L3V],3.04
4,DKLAWCHLELTRKLQDLIKDVLRY [L5W],4.03
5,DKLAECHLELTRKLQDLIKDVLRY [L5E],1.62
6,DKLASCHLELTRKLQDLIKDVLRY [L5S],3.18
7,DKLAHCHLELTRKLQDLIKDVLRY [L5H],2.98
8,DKLAYCHLELTRKLQDLIKDVLRY [L5Y],2.01
9,DKLAPCHLELTRKLQDLIKDVLRY [L5P],1.82
10,DKLATCHLELTRKLQDLIKDVLRY [L5T],1.72
11,DKLAICHLELTRKLQDLIKDVLRY [L5I],1.94
12,DKLALCHLENTRKLQDLIKDVLRY [L10N],1.21
13,DKLALCHLEFTRKLQDLIKDVLRY [L10F],3.33
14,DKLALCHLEQTRKLQDLIKDVLRY [L10Q],3.04
15,DKLALCHLERTRKLQDLIKDVLRY [L10R],1.51
16,DKLALCHLEGTRKLQDLIKDVLRY [L10G],1.86
17,DKLALCHLEDTRKLQDLIKDVLRY [L10D],2.09
18,DKLALCHLEATRKLQDLIKDVLRY [L10A],2.75
19,DKLALCHLEVTRKLQDLIKDVLRY [L10V],3
20,DKLALCHLETTRKLQDLIKDVLRY [L10T],2.14
21,DKLALCHLESTRKLQDLIKDVLRY [L10S],1.93
22,DKLALCHLEMTRKLQDLIKDVLRY [L10M],4.05
23,DKLALCHLEETRKLQDLIKDVLRY [L10E],2.57
24,DKLALCHLEHTRKLQDLIKDVLRY [L10H],1.3

row,Variant,protein stability index
1,DKLALCHLECTRKLQDLIKDVLRY [L10C],2.22
2,DKLALCHLEPTRKLQDLIKDVLRY [L10P],1.69
3,DKLALCHLEYTRKLQDLIKDVLRY [L10Y],1.76
4,DKLALCHLEKTRKLQDLIKDVLRY [L10K],1.59
5,DKLALSHLELTRKLQDLIKDVLRY [C6S],3.13
6,DKLALQHLELTRKLQDLIKDVLRY [C6Q],3.1
7,DKLALEHLELTRKLQDLIKDVLRY [C6E],2.04
8,DKLALTHLELTRKLQDLIKDVLRY [C6T],2.99
9,DKLALAHLELTRKLQDLIKDVLRY [C6A],2.64
10,DKLALNHLELTRKLQDLIKDVLRY [C6N],3.3
11,DKLALRHLELTRKLQDLIKDVLRY [C6R],2.52
12,DKLALMHLELTRKLQDLIKDVLRY [C6M],3.01
13,DKLALWHLELTRKLQDLIKDVLRY [C6W],2.01
14,DKLALVHLELTRKLQDLIKDVLRY [C6V],2.53
15,DKLALDHLELTRKLQDLIKDVLRY [C6D],1.15
16,DKLALPHLELTRKLQDLIKDVLRY [C6P],2.37
17,DKLALKHLELTRKLQDLIKDVLRY [C6K],3
18,DKLALCHLELTRKLCDLIKDVLRY [Q15C],2.26
19,DKLALCHLELTRKLDDLIKDVLRY [Q15D],2.48
20,DKLALCHLELTRKLADLIKDVLRY [Q15A],2.11
21,DKLALCHLELTRKLLDLIKDVLRY [Q15L],3.4
22,DKLALCHLELTRKLNDLIKDVLRY [Q15N],2.84
23,DKLALCHLELTRKLIDLIKDVLRY [Q15I],3.87
24,DKLALCHLELTRKLSDLIKDVLRY [Q15S],4.09

row,Variant,protein stability index
1,DKLALCHLELTRKLRDLIKDVLRY [Q15R],2.88
2,DKLALCHLELTRKLPDLIKDVLRY [Q15P],1.36
3,DKLALCHLELTRKLYDLIKDVLRY [Q15Y],2.79
4,DKLALCHLELTRKLTDLIKDVLRY [Q15T],2.05
5,DKLALCHLELTRKLVDLIKDVLRY [Q15V],1.95
6,DKLALCHLELTRKLWDLIKDVLRY [Q15W],2.34
7,DKLALCHLELTRELQDLIKDVLRY [K13E],2.19
8,DKLALCHLELTRGLQDLIKDVLRY [K13G],2.47
9,DKLALCHLELTRRLQDLIKDVLRY [K13R],2.23
10,DKLALCHLELTRTLQDLIKDVLRY [K13T],3.29
11,DKLALCHLELTRNLQDLIKDVLRY [K13N],1.8
12,DKLALCHLELTRPLQDLIKDVLRY [K13P],2.54
13,DKLALCHLELTRLLQDLIKDVLRY [K13L],1.52
14,DKLALCHLELTRMLQDLIKDVLRY [K13M],2.21
15,DKLALCHLELTRDLQDLIKDVLRY [K13D],2.86
16,DKLALCHLELTRSLQDLIKDVLRY [K13S],1.98
17,DKLALCHLELTRALQDLIKDVLRY [K13A],1.46
18,DKLALCHLELTRYLQDLIKDVLRY [K13Y],2.74
19,DKLALCHLELTRVLQDLIKDVLRY [K13V],3.38
20,DKLALCHLELTRILQDLIKDVLRY [K13I],1.15
21,DKLALCHLELTRCLQDLIKDVLRY [K13C],1.75
22,DKLALCHLKLTRKLQDLIKDVLRY [E9K],3.04
23,DKLALCHLVLTRKLQDLIKDVLRY [E9V],4.2
24,DKLALCHLALTRKLQDLIKDVLRY [E9A],2.63

row,Variant,protein stability index
1,DKLALCHLWLTRKLQDLIKDVLRY [E9W],2.73
2,DKLALCHLLLTRKLQDLIKDVLRY [E9L],2.72
3,DKLALCHLNLTRKLQDLIKDVLRY [E9N],5.51
4,DKLALCHLYLTRKLQDLIKDVLRY [E9Y],3.21
5,DKLALCHLSLTRKLQDLIKDVLRY [E9S],1.77
6,DKLALCHLILTRKLQDLIKDVLRY [E9I],2.67
7,DKLALCHLPLTRKLQDLIKDVLRY [E9P],3.31
8,DKLALCHLGLTRKLQDLIKDVLRY [E9G],2.87
9,DKLALCHLQLTRKLQDLIKDVLRY [E9Q],3.2
10,DKLALCHLHLTRKLQDLIKDVLRY [E9H],2.19
11,DKLALCHLFLTRKLQDLIKDVLRY [E9F],2.62
12,DKLALCHLELTRKLQDIIKDVLRY [L17I],2.89
13,DKLALCHLELTRKLQDDIKDVLRY [L17D],2.06
14,DKLALCHLELTRKLQDFIKDVLRY [L17F],2.42
15,DKLALCHLELTRKLQDPIKDVLRY [L17P],3.05
16,DKLALCHLELTRKLQDHIKDVLRY [L17H],2.06
17,DKLALCHLELTRKLQDKIKDVLRY [L17K],2.77
18,DKLALCHLELTRKLQDVIKDVLRY [L17V],2.4
19,DKLALCHLELTRKLQDWIKDVLRY [L17W],4.39
20,DKLALCHLELTRKLQDEIKDVLRY [L17E],2.04
21,DKLALCHLELTRKLQDNIKDVLRY [L17N],2.13
22,DKLALCHLELTRKLQDAIKDVLRY [L17A],1.42
